This note sets out measurements from patent US20220106400A1.

Experiment [1] concerns the target hCD64 (FcgRI) (human) (UniProt P12314). Description: told in the description as a result of the Examples; method not given.
For experiment [2] the target is unchanged. Description: FcR binding, Example 16.
In experiment [3] the target is human GITR on activated human CD4 T cells (human) (UniProt Q9Y5U5). Description: FACS binding to anti-CD3/CD28-activated human CD4 T cells. A general note: Flow cytometry measures light scatter and fluorescence of single cells or particles in a stream.
Sequence of human GITR on activated human CD4 T cells (human) (Q9Y5U5 26-241): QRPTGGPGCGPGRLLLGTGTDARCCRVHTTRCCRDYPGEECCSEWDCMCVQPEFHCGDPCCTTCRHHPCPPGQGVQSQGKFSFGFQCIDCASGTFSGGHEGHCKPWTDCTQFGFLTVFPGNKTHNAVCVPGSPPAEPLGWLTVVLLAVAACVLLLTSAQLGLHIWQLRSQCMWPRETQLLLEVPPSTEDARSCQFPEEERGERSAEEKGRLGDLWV

pEC50: −log10 of the molar value.

The term pEC50 denotes the EC50 on a negative log10 scale, so that one unit is a factor of ten.

Sequence of hCD64 (FcgRI) (human) (P12314 16-288 limits assumed): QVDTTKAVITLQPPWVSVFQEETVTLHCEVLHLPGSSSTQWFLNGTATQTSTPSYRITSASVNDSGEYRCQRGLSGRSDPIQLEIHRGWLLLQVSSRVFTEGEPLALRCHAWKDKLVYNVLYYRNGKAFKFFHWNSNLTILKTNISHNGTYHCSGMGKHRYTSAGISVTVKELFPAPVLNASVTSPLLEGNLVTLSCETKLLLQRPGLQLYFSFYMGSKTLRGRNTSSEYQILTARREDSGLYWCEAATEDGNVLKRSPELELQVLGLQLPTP

The substance antibody with IgG1 P238K (Example 13) registered a fold reduction of binding relative to wildtype IgG1 with hCD64 (FcgRI) (human) [1] of 100 fold.
On to “antibody with IgG1f-L235E-P238K heavy chain constant domain (Example 16)”, for which the fold reduction of CD64 binding against P238K alone with hCD64 (FcgRI) (human) [2] is 1000 fold.
Turning to unrelated hIgG1, the pEC50 in experiment [3] is 6.88.
The same measure, in the same setting: with unrelated hIgG2 the figure was 8.17.
